# PMC6455120 (2019)
# T1: MERS-CoV spike ectodomain ECD (Middle East respiratory …, UniProt K9N5Q8)
# T1 chain: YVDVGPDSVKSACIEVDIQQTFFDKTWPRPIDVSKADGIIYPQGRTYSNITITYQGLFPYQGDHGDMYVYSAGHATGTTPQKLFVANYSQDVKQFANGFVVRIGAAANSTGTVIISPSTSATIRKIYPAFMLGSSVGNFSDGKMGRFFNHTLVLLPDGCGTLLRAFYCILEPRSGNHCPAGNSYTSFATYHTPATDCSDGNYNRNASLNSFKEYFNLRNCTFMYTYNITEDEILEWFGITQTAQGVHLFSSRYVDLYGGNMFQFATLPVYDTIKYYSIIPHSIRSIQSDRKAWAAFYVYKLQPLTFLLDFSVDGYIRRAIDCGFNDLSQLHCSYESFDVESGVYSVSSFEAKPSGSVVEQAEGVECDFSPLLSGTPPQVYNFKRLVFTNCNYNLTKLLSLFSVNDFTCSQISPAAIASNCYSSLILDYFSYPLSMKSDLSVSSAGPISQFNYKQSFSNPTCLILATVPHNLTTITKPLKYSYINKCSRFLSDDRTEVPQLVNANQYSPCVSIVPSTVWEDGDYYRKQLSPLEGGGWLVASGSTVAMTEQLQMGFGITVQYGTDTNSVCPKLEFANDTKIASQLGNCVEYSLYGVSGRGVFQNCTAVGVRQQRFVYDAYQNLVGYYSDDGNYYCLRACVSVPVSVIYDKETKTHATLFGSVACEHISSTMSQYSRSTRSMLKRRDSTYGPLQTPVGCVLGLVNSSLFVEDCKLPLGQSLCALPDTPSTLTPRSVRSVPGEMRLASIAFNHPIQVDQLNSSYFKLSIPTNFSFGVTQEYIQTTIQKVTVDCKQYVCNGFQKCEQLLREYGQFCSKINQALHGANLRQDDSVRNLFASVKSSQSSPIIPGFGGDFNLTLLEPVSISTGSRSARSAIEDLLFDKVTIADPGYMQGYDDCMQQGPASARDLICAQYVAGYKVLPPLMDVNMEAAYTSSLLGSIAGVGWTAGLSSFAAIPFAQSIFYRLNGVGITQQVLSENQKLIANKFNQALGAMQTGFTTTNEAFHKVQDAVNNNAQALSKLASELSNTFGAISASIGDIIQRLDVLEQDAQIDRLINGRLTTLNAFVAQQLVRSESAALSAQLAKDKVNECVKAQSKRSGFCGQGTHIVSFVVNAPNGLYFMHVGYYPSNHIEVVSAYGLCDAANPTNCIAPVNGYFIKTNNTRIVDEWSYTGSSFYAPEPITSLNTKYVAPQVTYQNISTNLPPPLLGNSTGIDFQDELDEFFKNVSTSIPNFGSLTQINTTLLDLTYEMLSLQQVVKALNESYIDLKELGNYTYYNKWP
# B1: DPP4 (protein)
# chain: SRKTYTLTDYLKNTYRLKLYSLRWISDHEYLYKQENNILVFNAEYGNSSVFLENSTFDEFGHSINDYSISPDGQFILLEYNYVKQWRHSYTASYDIYDLNKRQLITEERIPNNTQWVTWSPVGHKLAYVWNNDIYVKIEPNLPSYRITWTGKEDIIYNGITDWVYEEEVFSAYSALWWSPNGTFLAYAQFNDTEVPLIEYSFYSDESLQYPKTVRVPYPKAGAVNPTVKFFVVNTDSLSSVTNATSIQITAPASMLIGDHYLCDVTWATQERISLQWLRRIQNYSVMDICDYDESSGRWNCLVARQHIEMSTTGWVGRFRPSEPHFTLDGNSFYKIISNEEGYRHICYFQIDKKDCTFITKGTWEVIGIEALTSDYLYYISNEYKGMPGGRNLYKIQLSDYTKVTCLSCELNPERCQYYSVSFSKEAKYYQLRCSGPGLPLYTLHSSVNDKGLRVLEDNSALDKMLQNVQMPSKKLDFIILNETKFWYQMILPPHFDKSKKYPLLLDVYAGPCSQKADTVFRLNWATYLASTENIIVASFDGRGSGYQGDKIMHAINRRLGTFEVEDQIEAARQFSKMGFVDNKRIAIWGWSYGGYVTSMVLGSGSGVFKCGIAVAPVSRWEYYDSVYTERYMGLPTPEDNLDHYRNSTVMSRAENFKQVEYLLIHGTADDNVHFQQSAQISKALVDVGVDFQAMWYTDEDHGIASSTAHQHIYTHMSHFIKQCFSLP
# Biological target: T1, MERS-CoV spike ectodomain ECD
binder,measurement,value
B1,Kd,3.42 nM
